Assay results as given in article PMC2893456, “Structural definition and substrate specificity of the S28 protease family: the crystal structure of human prolylcarboxypeptidase” (BMC Structural Biology, 2010).

Biological target: the molecule itself
Test: crystal structure; 2.8 Å, MIRAS; space group R32, one molecule in the asymmetric unit, dimer formed across a two-fold crystallographic symmetry axis; crystals from 1.8 M ammonium sulfate, 0.1 M HEPES, pH 7.5, 1-2% PEG 400

B1: human prolylcarboxypeptidase (PRCP) (enzyme)
chain: KNYSVLYFQQKVDHFGFNTVKTFNQRYLVADKYWKKNGGSILFYTGNEGDIIWFCNNTGFMWDVAEELKAMLVFAEHRYYGESLPFGDNSFKDSRHLNFLTSEQALADFAELIKHLKRTIPGAENQPVIAIGGSYGGMLAAWFRMKYPHMVVGALAASAPIWQFEDLVPCGVFMKIVTTDFRKSGPHCSESIHRSWDAINRLSNTGSGLQWLTGALHLCSPLTSQDIQHLKDWISETWVNLAMVDYPYASNFLQPLPAWPIKVVCQYLKNPNVSDSLLLQNIFQALNVYYNYSGQVKCLNISETATSSLGTLGWSYQACTEVVMPFCTNGVDDMFEPHSWNLKELSDDCFQQWGVRPRPSWITTMYGGKNISSHTNIVFSNGELDPWSGGGVTKDITDTLVAVTISEGAHHLDLRTKNALDPMSVLLARSLEVRHMKNWIRDFYDS
modifications: N-linked glycans at Asn 101, 317, 336, 345 and 415 (Asn 47 not glycosylated); disulfide bridges 215-372, 233-310, 264-343, 364-394
notes: prolylcarboxypeptidase (PRCP), human
Does B1 bind?
Result: binds
